Reference: publication PMC6979384, “Characterization of the plant homeodomain (PHD) reader family for their histone tail interactions” (Epigenetics & Chromatin, 2020)

Experiment: dCypher AlphaScreen Phase A, optimal reader concentration range
Type: binding
Conditions: 100 nM biotinylated peptide; 30 min + 60 min at 23 °C; AlphaLISA; n = 2
Experimental: Fig. 3 dCypher histone peptide-binding assays define the PTM recognition preference of PHD proteins with high sensitivity. a–h Binding curves to determine optimal reader protein concentration for full peptide library screening on the dCypher® AlphaScreen® platform (see “Methods”). X-axes are log(protein concentration (M)) at constant peptide concentration (100 nM); Y-axes are AlphaScreen counts, representing relative strength of binding (n = 2; error bars are S.D.). i Heat map represents relative binding to H3 N-terminal peptides (left) by PHD-containing GST-tagged proteins (top) using the dCypher AlphaScreen platform. Protein concentrations can be found in Additional file 5: Table S4. Binding strength is indicated by color gradient from green to yellow (stronger to weaker). The asterisk (*) by MLL5 signifies its general preference for H3K4 methylation. Alpha counts (n = 2) were normalized individually for each protein to the highest signal for each respective assay. For full dCypher peptide screen data, see Additional file 4: Table S3
We next employed a highly sensitive proximity-based AlphaScreen histone peptide assay (dCypher®) to provide a third and orthogonal approach to analyzing the histone binding preferences for a subset of the 31 PHD proteins with respect to various histone tail PTMs. In this assay, biotinylated peptides are bound to streptavidin “donor” beads and the GST-tagged reader domains bound to Glutathione “acceptor” beads. The donor beads are excited by 680 nm light, releasing a singlet oxygen which causes light emission (520–570 nm) in proximal acceptor beads (within 200 nm); emission intensity is then correlated to binding strength. […] Additionally, we examined several well characterized PHD–PTM interactors [DIDO1, KDM7A, and DPF2 (PPC2W2)] for positive controls and to provide a benchmark. Initial binding assays were conducted for each fusion protein using three peptides [H3 (1–20) with K4me0, H3K4me3 or H3K9me3] to determine the optimal reader domain concentration for full peptide library studies (Fig. 3a–h; Additional file 4: Table S3 and Additional file 5: Table S4). This is an important first step as signal often declined after query protein saturation (the ‘hook point’, caused by excess free query competing with bead bound).
The dCypher peptide screen assay was performed as previously described. Briefly, 5 μL of GST-tagged reader domains (optimal protein concentration for library screening determined by initial binding curves to candidate peptides) were incubated with 5 μL of 400 nM (100 nM Final) biotinylated histone peptides (EpiCypher) for 30 min at 23 °C in 1× AlphaLISA Epigenetics buffer + epigenetics buffer supplement (PerkinElmer, AL1008) in a 384-well plate. […] Plates were incubated at 23 °C in subdued lighting for 60 min and AlphaLISA signal measured on a PerkinElmer 2104 EnVision (680 nm laser excitation, 570 nm emission filter ± 50 nm bandwidth).
Supplementary file 13072_2020_328_MOESM4_ESM.xlsx: Additional file 4: Table S3. dCypher Results. Excel Tab Peptide Phase A is a compiled set of binding data: chromatin reader titration vs. several peptide targets. […] Excel Tab Peptide Phase B is a compiled set of binding data: chromatin reader at optimized concentrations vs. entire 293 peptide library. […]

| Molecule | Phase A Optimal Range (reader concentration) [nM] |
| --- | --- |
| CHD5 (PPCC): GST-tagged Dual PHD + Dual Chromo, 330-670 (protein, GST tag) KRIDDGDGYETDHQDYCEVCQQGGEIILCDTCPRAYHLVCLDPELEKAPEGKWSCPHCEKEGIQWEPKDDDDEEEEGGCEEEEDDHMEFCRVCKDGGELLCCDACPSSYHLHCLNPPLPEIPNGEWLCPRCTCPPLKGKVQRILHWRWTEPPAPFMVGLPGPDVEPSLPPPKPLEGIPEREFFVKWAGLSYWHCSWVKELQLELYHTVMYRNYQRKNDMDEPPPFDYGSGDEDGKSEKRKNKDPLYAKMEERFYRYGIKPEWMMIHRILNHSFDKKGDVHYLIKWKDLPYDQCTWEIDDIDIPYYDNLKQAYWGHRELMLGEDTRLPKRLLKKGKKLRDDK | 1 to 35 |
| TRIM66 (PB): GST-tagged PHD + Bromo, 966-1216 (protein, GST tag) APIENEDFCAVCLNGGELLCCDRCPKVFHLSCHVPALLSFPGGEWVCTLCRSLTQPEMEYDCENACYNQPGMRASPGLSMYDQKKCEKLVLSLCCNNLSLPFHEPVSPLARHYYQIIKRPMDLSIIRRKLQKKDPAHYTTPEEVVSDVRLMFWNCAKFNYPDSEVAEAGRCLEVFF | 0.5 to 10 |
| CHD4 (PPCC): GST-tagged Dual PHD + Dual Chromo, 350-710 (protein, GST tag) KKKKKGEEEVTAVDGYETDHQDYCEVCQQGGEIILCDTCPRAYHMVCLDPDMEKAPEGKWSCPHCEKEGIQWEAKEDNSEGEEILEEVGGDLEEEDDHHMEFCRVCKDGGELLCCDTCPSSYHIHCLNPPLPEIPNGEWLCPRCTCPALKGKVQKILIWKWGQPPSPTPVPRPPDADPNTPSPKPLEGRPERQFFVKWQGMSYWHCSWVSELQLELHCQVMFRNYQRKNDMDEPPSGDFGGDEEKSRKRKNKDPKFAEMEERFYRYGIKPEWMMIHRILNHSVDKKGHVHYLIKWRDLPYDQASWESEDVEIQDYDLFKQSYWNHRELMRGEEGRPGKKLKKVKLRKLERPPETPTVDPTV | 0.45 to 10 |
| PHRF1 (RP): GST-tagged RING + PHD, 90-250 (protein, GST tag) QGKLEAAGSFNSDDDAESCPICLNAFRDQAVGTPENCAHYFCLDCIVEWSKNANSCPVDRTLFKCICIRAQFGGKILRKIPVENTKASEEEEDPTFCEVCGRSDREDRLLLCDGCDAGYHMECLDPPLQEVPVDEWFCPECAAPGVVLAADAGPVSEEEVS | 5 to 30 |
| DPF2 (PPC2W2): GST-tagged Dual PHD + C2W2 finger, 190-391 (protein, GST tag) VGSARKKLDASILEDRDKPYACDICGKRYKNRPGLSYHYAHSHLAEEEGEDKEDSQPPTPVSQRSEEQKSKKGPDGLALPNNYCDFCLGDSKINKKTGQPEELVSCSDCGRSGHPSCLQFTPVMMAAVKTYRWQCIECKCCNICGTSENDDQLLFCDDCDRGYHMYCLTPSMSEPPEGSWSCHLCLDLLKEKASIYQNQNSS | 0.05 to 1 |
